Measurements: PMC4596520

Assays:
Assay in all cases: SPR
Conditions in all cases: read off a plot
[1] = target: hexa-His-tagged recombinant soluble human Fcγ receptor IIIa, 158F (UniProt P08637)
[2] = target: hexa-His-tagged recombinant soluble human Fcγ receptor I (UniProt P12314)
[3] = target: hexa-His-tagged recombinant soluble human Fcγ receptor IIa, 134R (UniProt P12318)
UniProt P12318, sequence (P12318 34-217 H167R): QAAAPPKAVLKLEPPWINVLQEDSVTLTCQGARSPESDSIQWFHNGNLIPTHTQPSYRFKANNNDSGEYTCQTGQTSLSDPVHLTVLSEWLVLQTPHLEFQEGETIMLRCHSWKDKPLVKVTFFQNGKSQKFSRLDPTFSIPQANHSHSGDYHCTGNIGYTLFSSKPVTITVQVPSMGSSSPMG

UniProt P12314, sequence (P12314 16-292): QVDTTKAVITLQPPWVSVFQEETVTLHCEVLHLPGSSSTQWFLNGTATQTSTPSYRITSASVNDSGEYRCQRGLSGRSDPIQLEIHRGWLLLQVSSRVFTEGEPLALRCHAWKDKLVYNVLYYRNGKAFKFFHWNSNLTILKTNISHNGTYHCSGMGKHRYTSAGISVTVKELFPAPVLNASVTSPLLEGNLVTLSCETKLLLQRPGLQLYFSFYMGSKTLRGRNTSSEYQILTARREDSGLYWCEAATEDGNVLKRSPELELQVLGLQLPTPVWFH
UniProt P08637, sequence (P08637 17-208): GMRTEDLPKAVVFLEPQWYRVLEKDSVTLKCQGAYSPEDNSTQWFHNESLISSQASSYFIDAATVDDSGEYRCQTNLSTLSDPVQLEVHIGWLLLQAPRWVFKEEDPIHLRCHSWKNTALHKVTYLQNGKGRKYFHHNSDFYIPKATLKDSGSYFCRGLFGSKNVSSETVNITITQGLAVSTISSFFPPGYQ

Kd ([1]; parent: est. 5.0)	Kd ([2]; parent: est. 2.3)	Kd ([3]; parent: est. 18)	Kd ([2]; parent: est. 11)	Kd ([3]; parent: est. 12)	Kd ([1]; parent: est. 17)	Substance
9 ×10^-7 M	2.7 ×10^-8 M					nonfucosylated anti-CD20 chimeric IgG1 rituximab with a wild-type Fc region Y296E
		13 ×10^-7 M	10 ×10^-8 M			fucosylated anti-CD20 chimeric IgG1 rituximab with a wild-type Fc region Y296M
8 ×10^-7 M	3.2 ×10^-8 M			11 ×10^-7 M		nonfucosylated anti-CD20 chimeric IgG1 rituximab with a wild-type Fc region Y296N
		12 ×10^-7 M	10 ×10^-8 M		41 ×10^-7 M	fucosylated anti-CD20 chimeric IgG1 rituximab with a wild-type Fc region Y296R
		13 ×10^-7 M	14 ×10^-8 M		56 ×10^-7 M	fucosylated anti-CD20 chimeric IgG1 rituximab with a wild-type Fc region Y296G
6 ×10^-7 M	2.6 ×10^-8 M			9.8 ×10^-7 M		nonfucosylated anti-CD20 chimeric IgG1 rituximab with a wild-type Fc region Y296F
10 ×10^-7 M	3.2 ×10^-8 M			11 ×10^-7 M		nonfucosylated anti-CD20 chimeric IgG1 rituximab with a wild-type Fc region Y296Q
6.5 ×10^-7 M	3 ×10^-8 M			7.5 ×10^-7 M		nonfucosylated anti-CD20 chimeric IgG1 rituximab with a wild-type Fc region Y296H
9.5 ×10^-7 M	3.2 ×10^-8 M			10 ×10^-7 M		nonfucosylated anti-CD20 chimeric IgG1 rituximab with a wild-type Fc region Y296I
9.5 ×10^-7 M	3.2 ×10^-8 M			11 ×10^-7 M		nonfucosylated anti-CD20 chimeric IgG1 rituximab with a wild-type Fc region Y296M
		12 ×10^-7 M	11 ×10^-8 M		17 ×10^-7 M	fucosylated anti-CD20 chimeric IgG1 rituximab with a wild-type Fc region Y296D
		11 ×10^-7 M	9.6 ×10^-8 M		27 ×10^-7 M	fucosylated anti-CD20 chimeric IgG1 rituximab with a wild-type Fc region Y296Q
		12 ×10^-7 M	10 ×10^-8 M			fucosylated anti-CD20 chimeric IgG1 rituximab with a wild-type Fc region Y296N
		9 ×10^-7 M	11 ×10^-8 M			fucosylated anti-CD20 chimeric IgG1 rituximab with a wild-type Fc region Y296L
	3.3 ×10^-8 M			10 ×10^-7 M		nonfucosylated anti-CD20 chimeric IgG1 rituximab with a wild-type Fc region Y296R
		12 ×10^-7 M	12 ×10^-8 M		32 ×10^-7 M	fucosylated anti-CD20 chimeric IgG1 rituximab with a wild-type Fc region Y296T

Kd ([1]; parent: est. 5.0)	Kd ([2]; parent: est. 2.3)	Kd ([3]; parent: est. 18)	Kd ([2]; parent: est. 11)	Kd ([3]; parent: est. 12)	Kd ([1]; parent: est. 17)	Substance
11 ×10^-7 M	3.4 ×10^-8 M			9.2 ×10^-7 M		nonfucosylated anti-CD20 chimeric IgG1 rituximab with a wild-type Fc region Y296S
		12 ×10^-7 M	10 ×10^-8 M			fucosylated anti-CD20 chimeric IgG1 rituximab with a wild-type Fc region Y296I
9 ×10^-7 M	3 ×10^-8 M			11 ×10^-7 M		nonfucosylated anti-CD20 chimeric IgG1 rituximab with a wild-type Fc region Y296V
		13 ×10^-7 M	10 ×10^-8 M		30 ×10^-7 M	fucosylated anti-CD20 chimeric IgG1 rituximab with a wild-type Fc region Y296S
			18 ×10^-8 M			fucosylated anti-CD20 chimeric IgG1 rituximab with a wild-type Fc region Y296P
6.5 ×10^-7 M	3.3 ×10^-8 M			8 ×10^-7 M		nonfucosylated anti-CD20 chimeric IgG1 rituximab with a wild-type Fc region Y296C
		11 ×10^-7 M	12 ×10^-8 M		20 ×10^-7 M	fucosylated anti-CD20 chimeric IgG1 rituximab with a wild-type Fc region Y296E
		11 ×10^-7 M	11 ×10^-8 M			fucosylated anti-CD20 chimeric IgG1 rituximab with a wild-type Fc region Y296H
10 ×10^-7 M	2.8 ×10^-8 M			11 ×10^-7 M		nonfucosylated anti-CD20 chimeric IgG1 rituximab with a wild-type Fc region Y296L
	7.4 ×10^-8 M					nonfucosylated anti-CD20 chimeric IgG1 rituximab with a wild-type Fc region Y296P
6 ×10^-7 M	2.7 ×10^-8 M			9.5 ×10^-7 M		nonfucosylated anti-CD20 chimeric IgG1 rituximab with a wild-type Fc region Y296D
		9.5 ×10^-7 M	11 ×10^-8 M		21 ×10^-7 M	fucosylated anti-CD20 chimeric IgG1 rituximab with a wild-type Fc region Y296F
		10 ×10^-7 M	9.8 ×10^-8 M		17 ×10^-7 M	fucosylated anti-CD20 chimeric IgG1 rituximab with a wild-type Fc region Y296C
10 ×10^-7 M	3 ×10^-8 M			9.6 ×10^-7 M		nonfucosylated anti-CD20 chimeric IgG1 rituximab with a wild-type Fc region Y296T
		14 ×10^-7 M	10 ×10^-8 M			fucosylated anti-CD20 chimeric IgG1 rituximab with a wild-type Fc region Y296V
